How the values were obtained:
[1] = target: T1, rhVEGF165 (recombinant human vascular endothelial growth factor 165) (human, UniProt P15692-4 27-191); experiment: fluorescence polarization
[2] = target: T1, rhVEGF165 (recombinant human vascular …); experiment: affinity capillary electrophoresis

| Binder | Kd [1] [µM] | Kd [2] [µM] |
| --- | --- | --- |
| ATTCTGGGGAGTGGTACGTAAGCAGTGCCACCACGGTTAT (ssDNA) [R 2] | 0.088 | 0.072 |
| TGGCTGTTATTTCTCTCGGCCTCAGATCTTGGGCCCAACA (ssDNA) [C 3] | 0.164 | 0.066 |
| GTCTGTACCAATCTAAAAGTGTATATTATATCTACGAGCCT (ssDNA) [R 1] | 0.1 | 0.053 |
| CCTTGTCATGATAGCTATGTTTCAGCCAACCATACCCGCT (ssDNA) [R 3] | 0.046 | 0.022 |
| GGAAGCCCGCTGTGACATCTGGAGCCGGTTCCCGAGCCA (ssDNA) [C 1] | 0.101 | 0.049 |
| CGAGGATATCCGATTGTGGGTGACGTATTGGACACCTTCCCG (ssDNA) [C 2] | 0.162 | 0.021 |
